Results taken from patent US20170137490A1, “PEPTIDES, AND METHODS AND APPARATUS UTILISING SAME” (The University of Manchester, priority 2014, published 2017).

Assays:
N-C3 = target: T1, N-C3 (Homo sapiens, UniProt Q13018); test: SPR kinetics of patient sera autoantibodies over immobilized N-C3; conditions: patient autoantibodies in sera binding to immobilized N-C3
T1 construct: the N-terminus to and including CTLD3 (N-C3); no tag is printed; made in house; host or cells: HEK 293-EBNA1
Description: Quantitation of serum antibody concentrations was performed on the Proteon XPR-36 (Bio-Rad) SPR instrument where the initial binding rates of purified human anti-PLA2R binding to N-C3 were used as standard curve to determine the concentration of anti-PLA2R in the unknown serum samples.

[1] = test system: human anti-PLA2R autoantibodies; test: Western blotting of PLA2R fragments with human anti-PLA2R autoantibodies; type: binding
[2] = test system: anti-PLA2R autoantibodies in patient sera; test: N-C3 inhibition ELISA (autoantibody binding to N-C8); design: species or system human; conditions: N-C3 9.0 μg ml-1; 43 PLA2R-positive sera
Description: The ELISA method was a variation on the standard assay previously described. Briefly, PLA2R (N-C8) at 125 ng ml-1 was coated onto ELISA plates overnight and plates blocked with Superblock (Thermo Scientific). 50 μl of 1:100 dilution of patient serum plus 50 μl of either buffer or NC-3 fragment to give a final concentration in the well of 9.0 μg ml-1, 0.9 μg ml-1, 0.09 μg ml-1 and 0.009 μg ml-1 were preincubated for 2 hours at room temperature before adding to the ELISA plate for a further 2 hours with shaking. Following extensive washing, anti-human IgG-HRP at 1:25,000 dilution in assay buffer was added to all wells for 2 hour incubation. Following washing, the plate was developed by adding substrate and the reaction terminated at 5 minutes by addition of 1 M H2SO4. Plates were read at 450 nm and inhibition curves constructed. The concentration of 9.0 μg ml-1 was used to compare the inhibition profile of 43 different sera previous reported as anti-PLA2R positive.

[3] = Sedimentation velocity (analytical ultracentrifugation); type: physicochemical; conditions: for Frictional ratio (f/f0): from Mass derived from MALLS
Description: The experiments were performed using double sector cells and a rotor speed of 74,500 g for N-C8 and 116,500 g for N-C3, taking 150 scans at 1.5 minutes intervals at a wavelength of 280 nm and at a temperature of 20° C. The sedimenting boundaries were analyzed using the program Sedfit v8.7.

[4] = Hydrodynamic radius from QELS; type: physicochemical; conditions: pH 7.4
[5] = test system: purified anti-PLA2R antibody; conditions: pH 6.2 (tight) vs pH 7.2 (extended)
[6] = Dual polarisation interferometry, pH dependent conformational change; type: physicochemical; conditions: pH range 5.0 to 7.2 screened; thickness of protein layer
Description: Dual polarisation interferometry was used to provide quantitative information on the thickness, the refractive index and density of the immobilized PLA2R layer with the capability to measure conformational change in real time. The DPI experiments were performed on a Farfield AnaLight instrument. […] N-C8 and N-C3 were regenerated between the different pHs with running buffer pH 7.2. Analysis of the raw data and determination of density, thickness and mass per unit area was achieved using the AnaLight® Bio200 analysis software (Farfield Scientific).

T1 sequence (Q13018 21-643 limits assumed): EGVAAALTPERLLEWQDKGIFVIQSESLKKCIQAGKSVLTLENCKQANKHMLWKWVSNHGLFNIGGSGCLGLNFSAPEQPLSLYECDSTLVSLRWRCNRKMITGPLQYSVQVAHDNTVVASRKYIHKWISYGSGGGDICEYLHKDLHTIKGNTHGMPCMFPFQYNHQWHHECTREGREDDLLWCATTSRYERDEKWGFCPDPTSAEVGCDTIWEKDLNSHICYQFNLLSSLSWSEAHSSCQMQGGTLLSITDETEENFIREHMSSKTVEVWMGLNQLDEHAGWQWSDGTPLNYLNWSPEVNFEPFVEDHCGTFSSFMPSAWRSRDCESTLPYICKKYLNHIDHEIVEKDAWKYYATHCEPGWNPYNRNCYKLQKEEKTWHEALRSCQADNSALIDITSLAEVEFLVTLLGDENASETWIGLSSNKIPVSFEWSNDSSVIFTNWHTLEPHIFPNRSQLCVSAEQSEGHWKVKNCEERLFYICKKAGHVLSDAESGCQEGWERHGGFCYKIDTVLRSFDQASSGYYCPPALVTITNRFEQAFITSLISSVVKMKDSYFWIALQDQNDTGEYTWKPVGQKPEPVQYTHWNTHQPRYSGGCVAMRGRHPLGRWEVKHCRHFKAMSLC

| Substance | Kd (N-C3) [nM] | recognition by human anti-PLA2R autoantibodies [1] | Sedimentation coefficient (S20, w) ([3]; pH 6.2) | sedimentation coefficient ([3]; pH 6.2) [s] | Frictional ratio (f/f0) ([3]; pH 6.2) | sedimentation coefficient ([3]; pH 7.2) [s] | Sedimentation coefficient (S20, w) ([3]; pH 7.4) | Frictional ratio (f/f0) ([3]; pH 7.4) | Hydrodynamic radius [4] [nm] | further results |
| --- | --- | --- | --- | --- | --- | --- | --- | --- | --- | --- |
| EDDLLWCATTSR [compound 3, Fibronectin type II domain peptide] | 0.043 | – | – | – | – | – | – | – | – | – |
| N-C2: recombinant PLA2R fragment, the N-terminus to and including CTLD2 | – | neither N-C2 nor C3 fragments were recognized | – | – | – | – | – | – | – | – |
| N-C3: recombinant PLA2R fragment, the N-terminus to and including CTLD3 | – | recognized | 5.35 ± 0.10 | 5.3 | 1.39 | 5.3 | 5.29 ± 0.09 | 1.38 | 3.81 ± 0.23 | patient sera in which binding of autoantibodies to N-C8 was effectively competed [2]: approximately 90% |
| N-C8: recombinant full length extracellular PLA2R | – | recognized | 9.23 ± 0.25 | 9.2 | 1.32 | 8.1 | 8.08 ± 0.21 | 1.51 | 6.25 ± 0.19 | difference in affinity of anti-PLA2R binding between conformations [5]: no difference in affinity; pH region where the transition in conformation occurred [6]: ~6.2 pH |
| YLNHIDHEIVEKDAWK [compound 4, Linker between CTLD1 and CTLD2] | 0.085 | – | – | – | – | – | – | – | – | – |
| YYATHCEPGWNPYNR [compound 5, Linker between CTLD1 and CTLD2] | 0.032 | – | – | – | – | – | – | – | – | – |
